Measurements from patent publication US20100167997A1, “METHOD FOR STIMULATION COLLAGEN SYNTHESIS AND/OR KGF EXPRESSION” (ATYR PHARMA, INC., priority 2005, published 2010).

Tests used:
[1] = system: collagen; test: RT-PCR analysis of collagen transcript in foreskin fibroblast cells; format: cell-based
Experimental: (§1) In order to measure the collagen transcript RNA induced by the AIMP1, foreskin fibroblast cells (5×10^4 cells/well; obtained from MTT; accession number: MC1232) were cultured in 10% serum-containing DMEM medium on a 6-well plate for 12 hours and then cultured in serum-free medium for about 3 hours. Next, the cultured cells were treated with the AIMP1 (SEQ ID NO: 1) at varying AIMP1 concentrations of 0, 20, 50, 100 and 200 nM for 6 hours (RT-PCR) or 12 hours (Western blot).
The cells treated with the AIMP1 at varying concentrations in Example <1-1> were collected and dissolved in TRIzol (invitrogen). 10% by weight of chloroform was added to the cell lysate, and mixed well. The mixture was centrifuged at 12,000 g for 15 minutes and the supernatant was collected. Ethanol was added to the collected supernatant to a final concentration of 70%. Then, the supernant was centrifuged at 26,000 g for 5 minutes and the precipitant was collected. The precipitant was dried and dissolved in sterilized distilled water, and the total RNA was extracted. 3 μg of the total RNA was used to prepare cDNA. Then, the cDNA was amplified by PCR using collagen-specific primers (SEQ ID NO: 4 and SEQ ID NO: 5). At this time, for use as a control group, the cDNA was subjected to PCR using GADPH-specific primers (SEQ ID NO: 6 and SEQ ID NO: 7). The PCR reaction consisted of: pre-denaturation of the template DNA at 95° C. for 5 min, followed by 25 cycles of 1 min at 95° C., 1 min at 52° C. and 1 min at 72° C., and then a final extension for 5 min at 72° C.
(§2) Foreskin fibroblast cells (5×10^4 cells/well) were cultured in 10% serum-containing DMEM medium on a 6-well plate for 12 hours, and then, cultured in serum-free medium for about 3 hours. Next, the cultured cells were treated with 100 nM of the AIMP1 at various time intervals (0, 2, 4, 6, 12 and 24 hours).
(§3) Foreskin fibroblast cells (5×10^4 cells/well) were cultured in 10% serum-containing DMEM medium on a 6-well plate about 12 hours, and then, cultured in serum-free medium for about 3 hours. Then, the cultured cells were treated with 100 nM of the N-terminal and C-terminal fragments of the AIMP1 prepared in Reference Example 1, at various time intervals of 0, 1, 2, 4, and 6 hours. Then, RT-PCR was performed in the same manner as in Example <1-2> using each of collagen-specific primers (SEQ ID NO: 4 and SEQ ID NO: 5), KGF-specific primers (SEQ ID NO: 8 and SEQ ID NO: 9) and GADPH-specific primers (SEQ ID NO: 6 and SEQ ID NO: 7).
(§4) Foreskin fibroblast cells (5×10^4 cells/well) were cultured in 10% serum-containing DMEM medium on a 6-well plate for 12 hours and then cultured in serum-free medium for about 3 hours. Next, the cultured cells were treated with each of the N-terminal fragments (SEQ ID NOS: 12, 13 and 14) and C-terminal fragment (SEQ ID NO: 15) of AIMP1 prepared in Reference Example 2 at an concentration of 100 nM for 2 hours and 6 hours, respectively. The treated cells were subjected to RT-PCR using collagen-specific primers (SEQ ID NOS: 4 and 5), KGF-specific primers (SEQ ID NOS: 8 and 9) and GADPH-specific primers (SEQ ID NOS: 6 and 7) in the same manner as in Example <1-2>.

[2] = system: collagen; test: Western blot analysis of collagen (anti-collagen I antibody) in foreskin fibroblast cells; format: cell-based
Experimental: as §1
The cells treated with the AIMP1 at varying AIMP1 concentrations in Example <1-1> were collected and lysed in a cell lysis buffer (50 mM HEPES, pH 7.5, 150 mM NaCl, 10% glycerol, 5 mM EGTA, 1 mM sodium orthovanadate, 10 mM NaF, 12 mM b-glycerophosphate, 1 mM DTT, 1 mM PMSF, […] aprotinin, and 1% NP40). Lysed cells were centrifuged at 26,000 g for 15 minutes and the cell extract was isolated. 30 μg of the cell extract was separated by 8% SDS-PAGE and immunoblotted with an anti-collagen I antibody (Abcam) according to any conventional method known in the art. As a control group, an anti-tubulin antibody (Sigma) was used.
as §2
Foreskin fibroblast cells (5×10^5 cells/well) were cultured in 10% serum-containing DMEM medium on a 6-well plate for 48 hours and then cultured in serum-free medium for about 3 hours. Next, the cultured cells were treated with each of the AIMP1 (SEQ ID NO: 1) and the AIMP1 N-terminal fragments (SEQ ID NOS: 2 and 12) at a concentration of 200 nM for 12 hours. As a control group, cells without treatment were used.
The cells treated with each of the AIMP1 and its N-terminal fragments and the control cells were collected at the indicated time and subjected to Western blot analysis in the same manner as in Example <1-3>.

[3] = system: collagen; test: Collagen immunofluorescent staining of wound site in wild-type and AIMP1-deficient mice; format: in vivo, mouse; conditions: WT and AIMP1-/- mice; 4 μg applied on wound site twice a day until 3 days after wounding; FIG. 3
Source text: By the gene trap method known in the art (Zambrowicz, B. P., et al., Nature 392:608-611, 1998; Kim J Y et al., Proc. Natl. Acad. Sci. USA 99:7912-7916, 2002), a mutation in the AIMP1 gene of a male C57BL6 mouse was induced to prepare a AIMP1 gene deficient homozygous mouse (AIMP1^−/− mouse, Ho) (Park S. G. et al., Am. J. Pathol., in press: 2005). Then, on the back of each of the 8-week-old homozygous mouse and wild-type mouse (AIMP1^+/+ mice, WT), a circular cut-off window with a diameter of 0.5 cm was made with scissors. The wound site was left to stand without dressing. 4 μg of the AIMP1 prepared in Reference Example 1 was dissolved in 5 μl of 20% glycerol-containing PBS and applied on the wound site. The AIMP1 applied twice a day until 3 days after wounding. A control group (AIMP1-untreated group) was treated with 20% glycerol-containing PBS. Then, the tissue of the wound site was isolated using scissors and fixed in 4% paraformaldehyde overnight. The fixed tissue was washed with PBS, incubated in 30% sucrose solution for 4 hours, and then mixed with an OCT (optimal cutting temperature) compound and frozen at −70° C.
6 μm of the frozen section was attached to a silane-coated slide and washed with PBS. Then, the slide was blocked with PBS containing 0.1% tween 20 and 1% non-fat dry milk and allowed to react with an anti-collagen I antibody (Abcam) at 37° C. for 2 hours. […]

[4] = system: KGF; test: RT-PCR analysis of KGF expression in foreskin fibroblast cells; format: cell-based; conditions: 100 nM for 2 hours, FIG. 4
Experimental: From foreskin fibroblast cells treated with 100 nM of the AIMP1 for 2 hours, the total RNA was extracted in the same manner as described in Example <1-2>. Then, the extract was amplified by RT-PCR using KGF-specific primers (SEQ ID NO: 8 and SEQ ID NO: 9). The control groups were amplified using cyclin D-specific primers (SEQ ID NO: 10 and SEQ ID NO: 11) and GADPH-specific primers (SEQ ID NO: 6 and SEQ ID NO: 7), respectively. The PCR reaction consisted of: predenaturation of the template DNA at 95° C. for 5 min, followed by 25 cycles of 1 min at 95° C., 1 min at 52° C. and 1 min at 72° C., and then, a final extension for 5 min at 72° C.
as §3, §4

B1: AIMP1: ARS-interacting multi-functional protein 1, a protein consisting of 312 amino acids (SEQ ID NO: 1) (protein, listed as Homo sapiens)
chain: MANNDAVLKRLEQKGAEADQIIEYLKQQVSLLKEKAILQATLREEKKLRVENAKLKKEIEELKQELIQAEIQNGVKQIAFPSGTPLHANSMVSENVIQSTAVTTVSSGTKEQIKGGTGDEKKAKEKIEKKGEKKEKKQQSIAGSADSKPIDVSRLDLRIGCIITARKHPDADSLYVEEVDVGEIAPRTVVSGLVNHVPLEQMQNRMVILLCNLKPAKMRGVLSQAMVMCASSPEKIEILAPPNGSVPGDRITFDAFPGEPDKELNPKKKIWEQIQPDLHTNDECVATYKGVPFEVKGKGVCRAQTMSNSGIK
synthesis of collagen (RT-PCR), varying concentrations ([1]; 0, 20, 50, 100 and 200 nM for 6 hours, FIG. 1 upper): stimulated the synthesis of collagen in fibroblast cells in dose-dependent manners | synthesis of collagen (RT-PCR), various time intervals ([1]; 100 nM, 0, 2, 4, 6, 12 and 24 hours, FIG. 2 upper): stimulated the synthesis of collagen in fibroblast cells in time-dependent manners | synthesis of collagen, protein levels (Western blot), varying concentrations ([2]; 0, 20, 50, 100 and 200 nM for 12 hours, FIG. 1 bottom): stimulated the synthesis of collagen in fibroblast cells in dose-dependent manners | synthesis of collagen, protein levels (Western blot), various time intervals ([2]; 100 nM, 0, 2, 4, 6, 12 and 24 hours, FIG. 2 bottom): stimulated the synthesis of collagen | synthesis of collagen, protein levels (Western blot), compared with cells without treatment ([2]; 200 nM for 12 hours, FIG. 7): more stimulated | amount of collagen at wound site (immunofluorescence) [3]: further increased | expression of KGF (RT-PCR) [4]: increased
